Measurements: US6617118B2, “Monoclonal antibody for analysis and clearance of polyethylene glycol and polyethylene glycol-modified molecules” (priority 1999, dated 2003)

What was measured:
[1] = βG enzymatic activity of PEG-modified βG and conjugates; format: biochemical; conditions: purified by gel filtration, 9.2 sPEG groups/βG subunit
immobilized AGP3 = experiment: AGP3 sandwich ELISA (AGP3 capture, AGP3-biotin detection); format: binding; conditions: unmodified protein in PBS
Description: AGP3 ELISA: Maxisorp™ 96-well microplates (Nunc™, Roskilde, Denmark) were coated with 50 μL/well of AGP3 (200 μg/ml in PBS) for 3 h at 37° C. Plates were blocked with 2% skim milk in PBS overnight and washed twice with PBS/T (0.05% Tween-20 in PBS) before serial dilutions of βG or βG-pPEG (50 μL in dilution buffer) were added to wells for 1.5 h at room temperature. Plates were washed 6 times with PBS/T and 50 μL/well AGP3-biotin (20 μg/ml in dilution buffer) was added for 1.5 h at room temperature. Plates were again washed with PBS/T and 50 μL/well streptavidin-HRP (1:1000) was added for 1 h at room temperature. Plates were washed before 100 μL/well ABTS substrate was added for 30 min at room temperature. Absorbance (405 nm) of wells was measured in a microtiter plate reader. The effect of serum on the AGP3 ELISA was examined by performing the assay in the presence of 10% serum isolated from healthy BALB/c mice.
A sandwich ELISA was developed in which AGP3 was employed for the capture step and AGP3-biotin used for detection. In FIG. 6, serial dilutions of βG-pPEG in PBS (◯) or 10% mouse serum (□) as well as βG in PBS (Δ) were incubated in a microtiter plate coated with AGP3. Binding of βG-pPEG to the immobilized AGP3 was detected by sequential addition of AGP3-biotin and streptavidin-HRP. Results represent mean values of triplicate determinations. […]

[2] = pH values less than 5.0 or greater than 9.0; 4 h at 37° C., assay at pH 7.0
Description: To test the pH stability of βG, enzyme in βG buffer was adjusted to pH values ranging from 3-11 for 4 h at 37° C. before neutralization to pH 7.0 and assay of enzymatic activity.

[3] = 150 μg i.v., after a period of rapid clearance
Description: Pharmacokinetics of βG-pPEG: Male BALB/c mice were i.v injected with 150 μg βG-pPEG. Serum was isolated from blood samples that were periodically removed from the tail vein of the mice. The concentration of βG-pPEG in serially-diluted serum samples was assayed in triplicate by the AGP3 ELISA. The concentration of βG-pPEG was determined by comparison to a standard curve generated with known concentrations of βG-pPEG.
A sandwich ELISA was developed in which AGP3 was employed for the capture step and AGP3-biotin used for detection. […] Binding of βG-pPEG to the immobilized AGP3 was detected by sequential addition of AGP3-biotin and streptavidin-HRP. Results represent mean values of triplicate determinations. Bars indicate the standard error of the mean. […] The effect of serum on the ELISA was examined by adding 10% mouse serum to samples before assay. […] The AGP3 ELISA was employed to measure the pharmacokinetics of βG-pPEG in mice. In FIG. 7, a BALB/c mouse was i.v. injected with 150 μg βG-pPEG. Blood samples were periodically removed from the tail vein and assayed for βG-pPEG concentration by ELISA.

B1: βG-sPEG: β-glucuronidase modified with sPEG (conjugate, UniProt P05804 1-603, looked up)
Beta-glucuronidase: MLRPVETPTREIKKLDGLWAFSLDRENCGIDQRWWESALQESRAIAVPGSFNDQFADADIRNYAGNVWYQREVFIPKGWAGQRIVLRFDAVTHYGKVWVNNQEVMEHQGGYTPFEADVTPYVIAGKSVRITVCVNNELNWQTIPPGMVITDENGKKKQSYFHDFFNYAGIHRSVMLYTTPNTWVDDITVVTHVAQDCNHASVDWQVVANGDVSVELRDADQQVVATGQGTSGTLQVVNPHLWQPGEGYLYELCVTAKSQTECDIYPLRVGIRSVAVKGEQFLINHKPFYFTGFGRHEDADLRGKGFDNVLMVHDHALMDWIGANSYRTSHYPYAEEMLDWADEHGIVVIDETAAVGFNLSLGIGFEAGNKPKELYSEEAVNGETQQAHLQAIKELIARDKNHPSVVMWSIANEPDTRPQGAREYFAPLAEATRKLDPTRPITCVNVMFCDAHTDTISDLFDVLCLNRYYGWYVQSGDLETAEKVLEKELLAWQEKLHQPIIITEYGVDTLAGLHSMYTDMWSEEYQCAWLDMYHRVFDRVSAVVGEQVWNFADFATSQGILRVGGNKKGIFTRDRKPKSAAFLLQKRWTGMNFGEKPQQGGKQ
modifications: sPEG modified
- original enzymatic activity possessed [1]: 69%

B2: Eschericia coli β-glucuronidase (protein, UniProt P05804 1-603, looked up)
Beta-glucuronidase: B1 Beta-glucuronidase
notes: recombinant Eschericia coli-derived β-glucuronidase
- signal in AGP3 sandwich ELISA (immobilized AGP3): lack of signal
- pH stability of enzymatic activity [2]: irreversibly deactivated

B3: βG-pPEG: β-glucuronidase modified with pPEG (conjugate, UniProt P05804 1-603, looked up)
Beta-glucuronidase: B1 Beta-glucuronidase
modifications: pPEG modified
- first-order half-life of elimination from the circulation [3]: 19.2 h
